Positions count from the first letter of the chain named. In names and notes the source's numbering stands.
B1: 6x-His-tagged PqsE (wild type) (enzyme)
chain: MLRLSAPGQLDDDLCLLGDVQVPVFLLRLGEASWALVEGGISRDAELVWADLCRWVADPSQVHYWLITHKHYDHCGLLPYLCPRLPNVQVLASERTCQAWKSESAVRVVERLNRQLLRAEQRLPEACAWDALPVRAVADGEWLELGPRHRLQVIEAHGHSDDHVVFYDVRRRRLFCGDALGEFDEAEGVWRPLVFDDMEAYLESLERLQRLPTLLQLIPGHGGLLRGRLAADGAESAYTECLRLCRRLLWRQSMGESLDELSEELHRAWGGQSVDFLPGELHLGSMRRMLEILSRQALPLD
B2: RhlR (wild type, untagged, bound to mBTL) (natural protein)
chain: MRNDGGFLLWWDGLRSEMQPIHDSQGVFAVLEKEVRRLGFDYYAYGVRHTIPFTRPKTEVHGTYPKAWLERYQMQNYGAVDPAILNGLRSSEMVVWSDSLFDQSRMLWNEARDWGLCVGATLPIRAPNNLLSVLSVARDQQNISSFEREEIRLRLRCMIELLTQKLTDLEHPMLMSNPVCLSHREREILQWTADGKSSGEIAIILSISESTVNFHHKNIQKKFDAPNKTLAAAYAAALGLI
B3: RhlR F53A (natural protein)
chain: B2 chain with F53A
B4: RhlR C157S (natural protein)
chain: B2 chain with C157S

Legend:
cryo-EM structure = molecular target: the molecule itself; assay: cryo-EM structure
[1] = molecular target: B1; assay: pull-down

## B1
cryo-EM structure
  stoichiometry N: 2

## B2
cryo-EM structure
  stoichiometry N: 2

## B3
[1]
  efficacy of binding relative to WT RhlR: 50%

## B4
[1]
  efficacy of binding relative to WT RhlR: 70%

Reference: article PMC9722607 (Structure (London, England : 1993), 2022)
